± gives the standard deviation of the averaged measurements.
Assay: total protein half-life in vivo (active degradation + dilution); higher = more stable protein
[1] = E. coli NCM3722 delta-clpP delta-lon delta-hslV, growth: N-lim chemostat, doubling time 6 h
[2] = E. coli NCM3722 delta-clpP, growth: N-lim chemostat, doubling time 6 h
[3] = E. coli NCM3722 delta-hslV, growth: N-lim chemostat, doubling time 6 h
[4] = E. coli NCM3722 delta-lon, growth: N-lim chemostat, doubling time 6 h
[5] = E. coli NCM3722 delta-smpB, growth: N-lim chemostat, doubling time 6 h
[6] = wild type E. coli NCM3722, growth: C-lim chemostat, doubling time 3 h
[7] = wild type E. coli NCM3722, growth: C-lim chemostat, doubling time 6 h
[8] = wild type E. coli NCM3722, growth: C-lim chemostat, doubling time 12 h
[9] = wild type E. coli NCM3722, growth: N-lim chemostat, doubling time 6 h
[10] = wild type E. coli NCM3722, growth: N-lim chemostat, doubling time 12 h
[11] = wild type E. coli NCM3722, growth: P-lim chemostat, doubling time 6 h
[12] = wild type E. coli NCM3722, growth: P-lim chemostat, doubling time 12 h

## MTPTIELICGHRSIRHFTDEPISEAQREAIINSARATSSSSFLQCSSIIRITDKALREELVTLTGGQKHVAQAAEFWVFCADFNRHLQICPDAQLGLAEQLLLGVVDTAMMAQNALIAAESLGLGGVYIGGLRNNIEAVTKLLKLPQHVLPLFGLCLGWPADNPDLKPRLPASILVHENSYQPLDKGALAQYDEQLAEYYLTRGSNNRRDTWSDHIRRTIIKESRPFILDYLHKQGWATR
[1]
  total protein half-life in vivo: 4.82 ± 1 h
[2]
  total protein half-life in vivo: 3.94 ± 0.13 h
[3]
  total protein half-life in vivo: 4.1 ± 0.27 h
[4]
  total protein half-life in vivo: 4.4 ± 0.54 h
[5]
  total protein half-life in vivo: 3.98 ± 0.23 h
[6]
  total protein half-life in vivo: 2.93 ± 0.35 h
[7]
  total protein half-life in vivo: 4.8 ± 0.82 h
[8]
  total protein half-life in vivo: 9.24 ± 0.9 h
[9]
  total protein half-life in vivo: 3.89 ± 0.47 h
[10]
  total protein half-life in vivo: 7.96 ± 0.79 h
[11]
  total protein half-life in vivo: 5.01 ± 0.35 h
[12]
  total protein half-life in vivo: 9.93 ± 2.7 h

## MTQFASPVLHSLLDTDAYKLHMQQAVFHHYYDVHVAAEFRCRGDDLLGIYADAIREQVQAMQHLRLQDDEYQWLSALPFFKADYLNWLREFRFNPEQVTVSNDNGKLDIRLSGPWREVILWEVPLLAVISEMVHRYRSPQADVAQALDTLESKLVDFSALTAGLDMSRFHLMDFGTRRRFSREVQETIVKRLQQESWFVGTSNYDLARRLSLTPMGTQAHEWFQAHQQISPDLANSQRAALAAWLEEYPDQLGIALTDCITMDAFLRDFGVEFASRYQGLRHDSGDPVEWGEKAIAHYEKLGIDPQSKTLVFSDNLDLRKAVELYRHFSSRVQLSFGIGTRLTCDIPQVKPLNIVIKLVECNGKPVAKLSDSPGKTICHDKAFVRALRKAFDLPHIKKAS
[1]
  total protein half-life in vivo: 4.31 ± 1.6 h
[2]
  total protein half-life in vivo: 3.07 ± 0.44 h
[3]
  total protein half-life in vivo: 2.98 ± 0.068 h
[4]
  total protein half-life in vivo: 4.11 ± 0.88 h
[5]
  total protein half-life in vivo: 2.95 ± 0.13 h
[6]
  total protein half-life in vivo: 2.28 ± 0.31 h
[7]
  total protein half-life in vivo: 4.04 ± 0.27 h
[8]
  total protein half-life in vivo: 5.56 ± 0.35 h
[9]
  total protein half-life in vivo: 2.92 ± 0.065 h
[10]
  total protein half-life in vivo: 4.49 ± 0.41 h
[11]
  total protein half-life in vivo: 3.57 ± 0.071 h
[12]
  total protein half-life in vivo: 5.37 ± 1 h

## MTQGAVKTTGKRSRAVSAKKKAILSAALDTFSQFGFHGTRLEQIAELAGVSKTNLLYYFPSKEALYIAVLRQILDIWLAPLKAFREDFAPLAAIKEYIRLKLEVSRDYPQASRLFCMEMLAGAPLLMDELTGDLKALIDEKSALIAGWVKSGKLAPIDPQHLIFMIWASTQHYADFAPQVEAVTGATLRDEVFFNQTVENVQRIIIEGIRPR [P0ACU2]
[1]
  total protein half-life in vivo: 6.17 ± 0.95 h
[2]
  total protein half-life in vivo: 5.74 ± 0.36 h
[4]
  total protein half-life in vivo: 5.5 ± 0.84 h
[5]
  total protein half-life in vivo: 4.92 ± 0.71 h
[6]
  total protein half-life in vivo: 2.31 ± 0.54 h
[7]
  total protein half-life in vivo: 5.35 h
[8]
  total protein half-life in vivo: 12.1 ± 1.9 h
[9]
  total protein half-life in vivo: 5.39 ± 0.83 h
[10]
  total protein half-life in vivo: 10.8 ± 1.4 h
[11]
  total protein half-life in vivo: 4.61 ± 0.38 h
[12]
  total protein half-life in vivo: 9.98 ± 0.25 h

## MTQKIEQSQRQERVAAWNRRAECDLAAFQNSPKQTYQAEKARDRKLCANLEEAIRRSGLQDGMTVSFHHAFRGGDLTVNMVMDVIAKMGFKNLTLASSSLSDCHAPLVEHIRQGVVTRIYTSGLRGPLAEEISRGLLAEPVQIHSHGGRVHLVQSGELNIDVAFLGVPSCDEFGNANGYTGKACCGSLGYAIVDADNAKQVVMLTEELLPYPHNPASIEQDQVDLIVKVDRVGDAAKIGAGATRMTTNPRELLIARSAADVIVNSGYFKEGFSMQTGTGGASLAVTRFLEDKMRSRDIRADFALGGITATMVDLHEKGLIRKLLDVQSFDSHAAQSLARNPNHIEISANQYANWGSKGASVDRLDVVVLSALEIDTQFNVNVLTGSDGVLRGASGGHCDTAIASALSIIVAPLVRGRIPTLVDNVLTCITPGSSVDILVTDHGIAVNPARPELAERLQEAGIKVVSIEWLRERARLLTGEPQPIEFTDRVVAVVRYRDGSVIDVVHQVKE
[8]
  total protein half-life in vivo: > 16 h

## MTQPMPGKPAEDAENELDIRGLFRTLWAGKLWIIGMGLAFALIALAYTFFARQEWSSTAITDRPTVNMLGGYYSQQQFLRNLDVRSNMASADQPSVMDEAYKEFVMQLASWDTRREFWLQTDYYKQRMVGNSKADAALLDEMINNIQFIPGDFTRAVNDSVKLIAETAPDANNLLRQYVAFASQRAASHLNDELKGAWAARTIQMKAQVKRQEEVAKAIYDRRMNSIEQALKIAEQHNISRSATDVPAEELPDSEMFLLGRPMLQARLENLQAVGPAFDLDYDQNRAMLNTLNVGPTLDPRFQTYRYLRTPEEPVKRDSPRRAFLMIMWGIVGGLIGAGVALTRRCSK [P0AG00]
[1]
  total protein half-life in vivo: 6.85 ± 0.38 h
[2]
  total protein half-life in vivo: 6.17 ± 0.56 h
[3]
  total protein half-life in vivo: 6.71 ± 1.2 h
[4]
  total protein half-life in vivo: 6.55 ± 0.092 h
[5]
  total protein half-life in vivo: 6.22 ± 0.16 h
[6]
  total protein half-life in vivo: 3.48 ± 0.46 h
[7]
  total protein half-life in vivo: 6.38 ± 0.37 h
[9]
  total protein half-life in vivo: 6.6 ± 1.2 h
[10]
  total protein half-life in vivo: 12.9 ± 1.9 h
[11]
  total protein half-life in vivo: 6.31 ± 0.24 h
[12]
  total protein half-life in vivo: 13.3 ± 0.56 h

## MTQPVLDIQQLHLSFPGFNGDVHALNNVSLQINRGEIVGLVGESGSGKSVTAMLIMRLLPTGSYCVHRGQISLLGEDVLNAREKQLRQWRGARVAMIFQEPMTALNPTRRIGLQMMDVIRHHQPISRREARAKAIDLLEEMQIPDAVEVMSRYPFELSGGMRQRVMIALAFSCEPQLIIADEPTTALDVTVQLQVLRLLKHKARASGTAVLFISHDMAVVSQLCDSVYVMYAGSVIESGVTADVIHHPRHPYTIGLLQCAPEHGVPRQLLPAIPGTVPNLTHLPDGCAFRDRCYAAGAQCENVPALTACGDNNQRCACWYPQQEVISV
[1]
  total protein half-life in vivo: 6.47 ± 1.1 h
[2]
  total protein half-life in vivo: 3.49 ± 0.17 h
[3]
  total protein half-life in vivo: 4.03 ± 0.098 h
[4]
  total protein half-life in vivo: 2.24 h
[5]
  total protein half-life in vivo: 4.53 ± 0.11 h
[6]
  total protein half-life in vivo: 2.28 ± 0.3 h
[7]
  total protein half-life in vivo: 3.41 ± 0.54 h
[9]
  total protein half-life in vivo: 4.02 ± 0.26 h
[10]
  total protein half-life in vivo: 7.62 ± 0.58 h

From the supplement of paper PMC11246515
